Assay results reported in patent publication US8653023.

Test system: protein phosphatase 2A (PP2A), endogenous, in N27 cell lysate

## recombinant pure PKCδ
  32P-kinase assay: phosphorylation of immunoprecipitated PP2A: PP2A immunoprecipitated from N27 cells was effectively phosphorylated by PKCδ immunoprecipitates as well as by recombinant pure PKCδ
